In the RNAGym collection of RNA variant scans (doi:10.7554/elife.80360) one finds self-cleavage data, which are given here for 78 variants.

B1: CPEB3 Ribozyme (parent)
chain: GGGGGCCACAGCAGAAGCGUUCACGUCGCGGCCCCUGUCAGAUUCUGGUGAAUCUGCGAAUUCUGCUGU

In this data set the parent is B1. Nature of the data set: self-cleavage, relative activity (ratio to wild type); higher = more cleavage; co-transcriptional.
GGGGGUCACAGCAGAAGCGUUCACGUCGCGGCCCCUGUCAGAUUCUGGUGAAUCUGCGAGUUCUGCUGU: the self-cleavage came to 0.85.

Turning to GGGGGUCACAGCAGAAGCGUUCACGUCGCGGCCCCUGUCAGAUUCUGGUGAAUCUGCGAUUUCUGCUGU, the self-cleavage stood at 0.401. Under GGGGGUCACAGCAGAAGCGUUCACGUCGCGGCCCCUGUCAGAUUCUGGUGAAUCUGCGACUUCUGCUGU stands 0.318; under GGGGGGCACAGCAGAAGCGUUCACGUCGCGGCCCCAGUCAGAUUCUGGUGAAUCUGCGAAUUCUGCUGU, 0.0334; under GGGGGGCACAGCAGAAGCGUUCACGUCGCGGCCCCGGUCAGAUUCUGGUGAAUCUGCGAAUUCUGCUGU, 0.105. Under GGGGGUGACAGCAGAAGCGUUCACGUCGCGGCCCCUGUCAGAUUCUGGUGAAUCUGCGAAUUCUGCUGU stands 0.198. As to GGGGGUAACAGCAGAAGCGUUCACGUCGCGGCCCCUGUCAGAUUCUGGUGAAUCUGCGAAUUCUGCUGU, the self-cleavage was 0.254. For the variant GGGGGUCAGAGCAGAAGCGUUCACGUCGCGGCCCCUGUCAGAUUCUGGUGAAUCUGCGAAUUCUGCUGU, the self-cleavage was determined as 1.02. Then GGGGGUCAUAGCAGAAGCGUUCACGUCGCGGCCCCUGUCAGAUUCUGGUGAAUCUGCGAAUUCUGCUGU, with 1.05. Take GGGGGUCAAAGCAGAAGCGUUCACGUCGCGGCCCCUGUCAGAUUCUGGUGAAUCUGCGAAUUCUGCUGU: the self-cleavage stood at 1.03. Then GGGGGUCACAGCAGAUGCGUUCACGUCGCGGCCCCUGUCAGAUUCUGGUGAAUCUGCGAAUUCUGCUGU, with 0.841; and GGGGGUCACAGCAGACGCGUUCACGUCGCGGCCCCUGUCAGAUUCUGGUGAAUCUGCGAAUUCUGCUGU, with 0.12; and GGGGGUCACAGCAGAGGCGUUCACGUCGCGGCCCCUGUCAGAUUCUGGUGAAUCUGCGAAUUCUGCUGU, with 0.986. On to GGGGGGCACAGCAGAAGCGUUCACGUCGCGGCCCCUGUCAGAUUCUGGUGAAUCUGCGAAUUCUGCCGU, for which the self-cleavage was 0.344. For the variant GGGGGGCACAGCAGAAGCGUUCACGUCGCGGCCCCUGUCAGAUUCUGGUGAAUCUGCGAAUUCUGCGGU, the self-cleavage worked out at 0.374. With GGGGGGCACAGCAGAAGCGUUCACGUCGCGGCCCCUGUCAGAUUCUGGGGAAUCUGCGAAUUCUGCUGU, the self-cleavage came to 0.31.

With GGGGGGCACAGCAGAAGCGUUCACGUCGCGGCCCCUGUCAGAUUCUGGAGAAUCUGCGAAUUCUGCUGU, the self-cleavage is 0.467. Turning to GGGGGGCACAGCAGAAGCGUUCACGUCGCGGCCCCUGUCAGAUUCUGGCGAAUCUGCGAAUUCUGCUGU, the self-cleavage was 0.417. As for GGGGGGCACAGCAGAAGCGUGCACGUCGCGGCCCCUGUCAGAUUCUGGUGAAUCUGCGAAUUCUGCUGU, the self-cleavage is 0.0354. GGGGGGCACAGCAGAAGCGUCCACGUCGCGGCCCCUGUCAGAUUCUGGUGAAUCUGCGAAUUCUGCUGU: the self-cleavage is 0.312.

Consider GGGGGUCACAGCAGAAGCGUUCACGUCGCGGCCCCUGUCAGAUUCUGGUGCAUCUGCGAAUUCUGCUGU, for which the self-cleavage was found to be 0.905. Then GGGGGGCACAGCAGAAGCGAUCACGUCGCGGCCCCUGUCAGAUUCUGGUGAAUCUGCGAAUUCUGCUGU, with 0.0487; and GGGGGUCACAGCAGAAGCGUUCACGUCGCGGCCCCUGUCCGAUUCUGGUGAAUCUGCGAAUUCUGCUGU, with 0.506.

GGGGGUCACAGCAGAAGCGUUCACGUCGCGGCCCCUGUCUGAUUCUGGUGAAUCUGCGAAUUCUGCUGU: the self-cleavage turned out to be 0.835. GGGGGUCACAGCAGAAGAGUUCACGUCGCGGCCCCUGUCAGAUUCUGGUGAAUCUGCGAAUUCUGCUGU: the self-cleavage amounted to 0.119. Under GGGGGGCACAGCAGAAGCGUUCACGUCGCGGCCCCUGUCAGAUUCUGGUGAAUCUGCGAAUUCAGCUGU stands 0.133; under GGGGGUCACAGCAGAAGCGUUCACGUGGCGGCCCCUGUCAGAUUCUGGUGAAUCUGCGAAUUCUGCUGU, 0.199. For the variant GGGGGUCACAGCAGAAGCGUUCACGUAGCGGCCCCUGUCAGAUUCUGGUGAAUCUGCGAAUUCUGCUGU, the self-cleavage turned out to be 0.369.

On to GGGGGGCACAGCAGAAGCGUUCACGUCGCGGCCCCUGUCAGACUCUGGUGAAUCUGCGAAUUCUGCUGU, for which the self-cleavage turned out to be 0.39.

GGGGGUCACAGCAGAAGCGUUCACGUCGCGGCCCCUGUCAGAUUCUGGUGAAUCUGCGAAUUCUGCUGU: the self-cleavage turned out to be 1.01. With GGGGGGCACAGCAGAAGCGUUCACGUCGCGGCCCCUGUCAGAUUCUGGUGAAUCUGCGAAUACUGCUGU, the self-cleavage worked out at 0.129. As to GGGGGGCACAGCAGAAGCGUUCACGUCGCGGCCCCUGUCAGAUUCUGGUGAAUCUGCGAAUGCUGCUGU, the self-cleavage is 0.0551.

In the case of GGGGGUCACAGCCGAAGCGUUCACGUCGCGGCCCCUGUCAGAUUCUGGUGAAUCUGCGAAUUCUGCUGU, the self-cleavage stood at 0.85. Then GGGGGGCACAGCAGAAGCGUUCACGACGCGGCCCCUGUCAGAUUCUGGUGAAUCUGCGAAUUCUGCUGU, with 0.188; and GGGGGGCACAGCAGAAGCGUUCACGGCGCGGCCCCUGUCAGAUUCUGGUGAAUCUGCGAAUUCUGCUGU, with 0.224. Under GGGGGUCACAGCAGAAGCGUUCACGUCGCGGCCCCUGUCAGAUUCUGGUGAAUCUGCGCAUUCUGCUGU stands 0.586; under GGGGGUCACAGCAGAAGCGUUCACGUCGCGGCCCCUGUCAGAUUCUGGUGAAUCUGCGGAUUCUGCUGU, 0.961.

GGGGGUCACAGCAGAAGCGUUCACGUCGCGGCCCCUGUCAGAUUCUGGUGAAUCUGCGUAUUCUGCUGU: the self-cleavage was found to be 0.733. With GGGGGGCACAGCAGAAGCGUUCACGUCGCGGCCCCUGUCAGAUUCUGGUGAAUCUGCGAAUUCUGCUUU, the self-cleavage is 0.509. With GGGGGGCACAGCAGAAGCGUUCACGUCGCGGCCCCUGUCAGAUUCUGGUGAAUCUGCGAAUUCUGCUAU, the self-cleavage was 0.602. Under GGGGGGCACAGCAGAAGCGUUCACGUCGCGGCCCCUGUCAGAUUCUGGUGAAUCUGCGAAUUCUGCUCU stands 0.478. Then GGGGGGCACAGCAGAAGCGUUCACGUCGCGGCCCCUGUCAGAUGCUGGUGAAUCUGCGAAUUCUGCUGU, with 0.183.

Consider GGGGGGCACAGCAGAAGCGUUCACGUCGCGGCCCCUGUCAGAUCCUGGUGAAUCUGCGAAUUCUGCUGU, for which the self-cleavage was 0.281. Under GGGGGGCACAGCAGAAGCGUUCACGUCGCGGCCCCUGUCAGAUACUGGUGAAUCUGCGAAUUCUGCUGU stands 0.224; under GGGGGGCACAGCAGAAGCGUUCACGUCGCGGCCCCUGUCAGAUUCUGGUGAAUCUGCGAAUUCUACUGU, 0.109. Turning to GGGGGGCACAGCAGAAGCGUUCACGUCGCGGCCCCUGUCAGAUUCUGGUGAAUCUGCGAAUUCUUCUGU, the self-cleavage is 0.226.

With GGGGGUCACAGCAGAAGCGUUCACGUCGCGGCCCCUGUCAGAUUCUGGUGACUCUGCGAAUUCUGCUGU, the self-cleavage stood at 0.956. For the variant GGGGGUCACAGCAGAAGCGUUCACGUCGCGGCCCCUGUCAGAUUCUGGUGAUUCUGCGAAUUCUGCUGU, the self-cleavage was determined as 0.996. Under GGGGGUCACAGCAGAAGCGUUCAAGUCGCGGCCCCUGUCAGAUUCUGGUGAAUCUGCGAAUUCUGCUGU stands 0.582.

As for GGGGGUCACAGCAGAAGCGUUCAUGUCGCGGCCCCUGUCAGAUUCUGGUGAAUCUGCGAAUUCUGCUGU, the self-cleavage worked out at 0.709. GGGGGUCCCAGCAGAAGCGUUCACGUCGCGGCCCCUGUCAGAUUCUGGUGAAUCUGCGAAUUCUGCUGU: the self-cleavage is 0.941. Under GGGGGUCGCAGCAGAAGCGUUCACGUCGCGGCCCCUGUCAGAUUCUGGUGAAUCUGCGAAUUCUGCUGU stands 0.813; under GGGGGUCUCAGCAGAAGCGUUCACGUCGCGGCCCCUGUCAGAUUCUGGUGAAUCUGCGAAUUCUGCUGU, 1.01. Turning to GGGGGGCACAGCAGAAGCGUUCACGUCGCGGCCCCUGUCAGAUUCUGGUGAAUCUGCGAACUCUGCUGU, the self-cleavage was 0.0649. Then GGGGGUCACAGCAGAAGCGUUCACGUCGCGGCCCCUGUCAGCUUCUGGUGAAUCUGCGAAUUCUGCUGU, with 0.966; and GGGGGUCACAGCAGAAGCGUUCACGUCGCGGCCCCUGUCAGUUUCUGGUGAAUCUGCGAAUUCUGCUGU, with 0.957.

As to GGGGGUCACAGCAGAAGCGUUCACGUCGGGGCCCCUGUCAGAUUCUGGUGAAUCUGCGAAUUCUGCUGU, the self-cleavage came out at 0.259. Under GGGGGGCACAGCAGAAGCGUUCACGUCGCGGCCCCUGUCAGAUUCUGGUGAAUCUGCGAAUUCUGCUGA stands 0.589. Turning to GGGGGGCACAGCAGAAGCGUUCACGUCGCGGCCCCUGUCAGAUUCUGGUGAAUCUGCGAAUUCUGCUGC, the self-cleavage worked out at 0.797.

Regarding GGGGGGCACAGCAGAAGCGUUCACGUCGCGGCCCCUGUCAGAUUCUGGUGAAUCUGCGAAUUCUGCUGG, the self-cleavage was determined as 0.639. As for GGGGGUCACAGAAGAAGCGUUCACGUCGCGGCCCCUGUCAGAUUCUGGUGAAUCUGCGAAUUCUGCUGU, the self-cleavage was found to be 0.676. With GGGGGUCACAGUAGAAGCGUUCACGUCGCGGCCCCUGUCAGAUUCUGGUGAAUCUGCGAAUUCUGCUGU, the self-cleavage came out at 0.987. Under GGGGGUCACAGGAGAAGCGUUCACGUCGCGGCCCCUGUCAGAUUCUGGUGAAUCUGCGAAUUCUGCUGU stands 0.726. On to GGGGGUCACAGCAGAAGCGUUCUCGUCGCGGCCCCUGUCAGAUUCUGGUGAAUCUGCGAAUUCUGCUGU, for which the self-cleavage was 0.999. As for GGGGGUCACAGCAGAAGCGUUCCCGUCGCGGCCCCUGUCAGAUUCUGGUGAAUCUGCGAAUUCUGCUGU, the self-cleavage was 0.953.

With GGGGGUCACUGCAGAAGCGUUCACGUCGCGGCCCCUGUCAGAUUCUGGUGAAUCUGCGAAUUCUGCUGU, the self-cleavage amounted to 0.999. With GGGGGUCACCGCAGAAGCGUUCACGUCGCGGCCCCUGUCAGAUUCUGGUGAAUCUGCGAAUUCUGCUGU, the self-cleavage amounted to 0.985. Turning to GGGGGUCACAGCAGAAGCGUUGACGUCGCGGCCCCUGUCAGAUUCUGGUGAAUCUGCGAAUUCUGCUGU, the self-cleavage was found to be 0.205. Then GGGGGUCACAGCAGAAGCGUUCACGUCGCGGUCCCUGUCAGAUUCUGGUGAAUCUGCGAAUUCUGCUGU, with 0.826; and GGGGGUCACAGCAGAAGCGUUCACGUCGCGGGCCCUGUCAGAUUCUGGUGAAUCUGCGAAUUCUGCUGU, with 0.246; and GGGGGGCACAGCAGAAGCGUUCACGUCGCGGCCCCUGUCAGAUUCUGGUGAAACUGCGAAUUCUGCUGU, with 0.234. Then GGGGGGCACAGCAGAAGCGUUCACGUCGCGGCCCCUGUCAGAUUCUGGUGAACCUGCGAAUUCUGCUGU, with 0.108; and GGGGGGCACAGCAGAAGCGUUCACGUCGCGGCCCCUGUCAGAUUCUGGUGAAUCUGCCAAUUCUGCUGU, with 0.294; and GGGGGGCACAGCAGAAGCGUUCACGUCGCGGCCCCUGUCAGAUUCUGGUGAAUCUGCUAAUUCUGCUGU, with 0.402. Then GGGGGUCACAGCAGCAGCGUUCACGUCGCGGCCCCUGUCAGAUUCUGGUGAAUCUGCGAAUUCUGCUGU, with 0.802.

Turning to GGGGGUCACAGCAGGAGCGUUCACGUCGCGGCCCCUGUCAGAUUCUGGUGAAUCUGCGAAUUCUGCUGU, the self-cleavage was 0.981. Then GGGGGGCACAGCAGAAGCGUUCACGUCGCGGCCCCUGACAGAUUCUGGUGAAUCUGCGAAUUCUGCUGU, with 0.248; and GGGGGGCACAGCAGAAGCGUUCACGUCGCGGCCCCUGCCAGAUUCUGGUGAAUCUGCGAAUUCUGCUGU, with 0.227.
